{"source": "paper PMC3094755", "molecular_target": "PARP-1 F1 (Homo sapiens) (UniProt P09874)", "sequence (P09874 1-108)": "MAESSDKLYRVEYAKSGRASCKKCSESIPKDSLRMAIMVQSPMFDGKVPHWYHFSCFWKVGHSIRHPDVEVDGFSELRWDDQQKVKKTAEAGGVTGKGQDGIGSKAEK", "assay": "fluorescence anisotropy", "conditions": "5'-phosphate; FA: 50 mM Tris-HCl pH 7, 150 uM ZnSO4, 4 mM DTT, 0-200 mM NaCl, 25 C, 10 nM DNA (mutants 25 nM DNA, 25 mM NaCl); EMSA: 50 mM Tris-HCl pH 7.4, 150 uM ZnSO4, 4 mM", "note": "“And” between values parts separate entries of the source, which are not always exact repeats. Equal entries are not always repeated."}
{"sequence": "CGGTCGATCGTAAGATCGACCGGCGCTGGAGCTTGCTCCAGCGC [44-nt nicked dumbbell, 5'-phosphate, fluorescein-dT]", "values": [{"measurement": "Kd", "value": "6.6 µM and 1.1 µM"}]}
